Consider one molecule from PMC3020944, “Structure-Activity Relationship of Cinnamaldehyde Analogs as Inhibitors of AI-2 Based Quorum Sensing and Their Effect on Virulence of Vibrio spp”.

The target in the series is T1, GST-LuxR (Vibrio harveyi, UniProt P21308 1-205).
T1 sequence: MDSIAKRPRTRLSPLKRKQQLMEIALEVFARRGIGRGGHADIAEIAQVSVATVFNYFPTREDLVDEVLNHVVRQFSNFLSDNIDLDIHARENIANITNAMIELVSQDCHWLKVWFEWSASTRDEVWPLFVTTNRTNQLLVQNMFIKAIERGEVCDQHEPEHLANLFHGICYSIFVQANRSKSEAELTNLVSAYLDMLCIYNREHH
The series is described as follows: fluorescence anisotropy; no inhibitor; Kd value only in Fig. 2B; 30°C; fluorescence polarisation, excitation 480 nm, emission 535 nm; binding buffer, salt and pH not given (as in ref 12); duplex annealed in NaCl-Tris-EDTA. To be noted: protein: recombinant; tags: GST; chain copies: 2; label: 5' fluorescein on strand 1; blunt. Background: In fluorescence polarisation assays a small probe gives low polarisation when free and higher when bound to something large.

B1: V. harveyi consensus LuxR binding sequence (dsDNA)
DNA 1: TATTGATAAATTTATCAATAA
DNA 2: TTATTGATAAATTTATCAATA
For the molecule B1, the binding result is “binds”.
